Reference: US9011842
Several values for one entry are separate records, joined by “and”; a condition that tells them apart may be missing. Equal values may be shown once.

Molecular target: T1, 33-mer peptide fragment of α-gliadin, LQLQPFPQPQLPYPQPQLPYPQPQLPYPQPQPF (SEQ ID NO:1)
T1 chain: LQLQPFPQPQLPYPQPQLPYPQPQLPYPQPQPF

B1: Carboxypeptidase Y derived from Saccharomyces cerevisiae (protein)
chain: KIKDPKILGIDPNVTQYTGYLDVEDEDKHFFFWTFESRNDPAKDPVILWLNGGPGCSSLTGLFFELGPSSIGPDLKPIGNPYSWNSNATVIFLDQPVNVGFSYSGSSGVSNTVAAGKDVYNFLELFFDQFPEYVNKGQDFHIAGESYAGHYIPVFASEILSHKDRNFNLTSVLIGNGLTDPLTQYNYYEPMACGEGGEPSVLPSEECSAMEDSLERCLGLIESCYDSQSVWSCVPATIYCNNAQLAPYQRTGRNVYDIRKDCEGGNLCYPTLQDIDDYLNQDYVKEAVGAEVDHYESCNFDINRNFLFAGDWMKPYHTAVTDLLNQDLPILVYAGDKDFICNWLGNKAWTDVLPWKYDEEFASQKVRNWTASITDEVAGEVKSYKHFTYLRVFNGGHMVPFDVPENALSMVNEWIHGGFSL
Question: How did the “digestion of the 33-mer peptide (HPLC-MS), in vitro gastrointestinal model with pepsin, trypsin and chymotrypsin present” value turn out when B1 was run?
Answer: GDEP-M, CPY, and the combination of GDEP-M and CPY efficiently digested the 33-mer peptide in the artificial gastrointestinal condition

Question: And the “hydrolysis of the 33-mer peptide (HPLC-MS and ELISA), pH 5.0” value?
Answer: CPY, MX-PEP, and AN-PEP hydrolyze the 33-mer peptide. AN-PEP appears to have the strongest activity against the 33-mer peptide, followed by CPY and then MX-PEP

Question: What about the “hydrolysis of the 33-mer peptide (HPLC-MS), 4 hours, SIF pH 6.8” value of the same protein?
Answer: CPY efficiently hydrolyzed the 33-mer peptide and residual peptides were approximately 20 amino acids in length

Question: And the “hydrolysis of the 33-mer peptide (HPLC-MS), 4 hours, buffer pH 4.0 to 7.0” value?
Answer: CPY completely hydrolyzed the 33-mer peptide at acidic pH

Question: What about the “percent of the 33-mer peptide digested (ELISA), in vitro gastrointestinal model with pepsin, trypsin and chymotrypsin present” value of the same protein?
Answer: CPY alone digested about 95% of the 33-mer peptide

B2: Oryzin (protein)
chain: GLTTQKSAPWGLGSISHKGQQSTDYIYDTSAGEGTYAYVVDSGVNVDHEEFEGRASKAYNAAGGQHVDSIGHGTHVSGTIAGKTYGIAKKASILSVKVFQGESSSTSVILDGFNWAANDIVSKKRTSKAAINMSLGGGYSKAFNDAVENAFEQGVLSVVAAGNENSDAGQTSPASAPDAITVAAIQKSNNRASFSNFGKVVDVFAPGQDILSAWIGSSSATNTISGTSMATPHIVGLSLYLAALENLDGPAAVTKRIKELATKDVVKDVKGSPNLLAYNGNA
Question: Which results are given for B2?
Answer: degradation of the 33-mer peptide (ELISA of intact 33-mer), 0.1 mg/ml enzyme, SIF pH 6.8: Oryzin alone did not degrade the 33-mer peptide; degradation of the 33-mer peptide (ELISA), 60 min, SIF pH 6.8, lowest enzyme concentrations: Oryzin, at the lowest concentrations, did not degrade the 33-mer peptide; percent of the 33-mer peptide degraded (ELISA), 60 min, SIF pH 6.8, 0.4 mg/ml and 0.8 mg/ml enzyme: at higher concentrations (0.4 mg/ml and 0.8 mg/ml), Oryzin degraded about 10% to about 20% of the 33-mer peptide

B3: Neutral protease II (protein)
chain: TEVTDCKGDAESSLTTALSNAAKLANQAAEAAESGDESKFEEYFKTTDQQTRTTVAERLRAVAKEAGSTSGGSTTYHCNDPYGYCEPNVLAYTLPSKNEIANCDIYYSELPPLAQKCHAQDQATTTLHEFTHAPGVYQPGTEDLGYGYDAATQLSAQDALNNADSYALYANAIELKC
Question: For B3, which “degradation of the 33-mer peptide (ELISA of intact 33-mer), 0.1 mg/ml enzyme, SIF pH 6.8” value is on record?
Answer: NP I and NP II each exhibited a limited ability to degrade the 33-mer peptide

Question: And the “percent of the 33-mer peptide degraded (ELISA), 60 min, SIF pH 6.8” value?
Answer: NP II alone degraded about 20% to about 30% of the 33-mer peptide

B4: papain (protein)
chain: IPEYVDWRQKGAVTPVKNQGSCGSCWAFSAVVTIEGIIKIRTGNLNEYSEQELLDCDRRSYGCNGGYPWSALQLVAQYGIHYRNTYPYEGVQRYCRSREKGPYAAKTDGVRQVQPYNEGALLYSIANQPVSVVLEAAGKDFQLYRGGIFVGPCGNKVDHAVAAVGYGPNYILIKNSWGTGWGENGYIRIKRGTGNSYGVCGLYTSSFYPVKN
Question: With B4 as the protein, how does the “hydrolysis of the 33-mer peptide (HPLC-MS), 1 hour, pH 4.5” value read?
Answer: Papain completely hydrolyzed the 33-mer peptide at a pH of about 4.5

B5: proteinase K (protein)
chain: AAQTNAPWGLARISSTSPGTSTYYYDESAGQGSCVYVIDTGIEASHPEFEGRAQMVKTYYYSSRDGNGHGTHCAGTVGSRTYGVAKKTQLFGVKVLDDNGSGQYSTIIAGMDFVASDKNNRNCPKGVVASLSLGGGYSSSVNSAAARLQSSGVMVAVAAGNNNADARNYSPASEPSVCTVGASDRYDRRSSFSNYGSVLDIFGPGTSILSTWIGGSTRSISGTSMATPHVAGLAAYLMTLGKTTAASACRYIADTANKGDLSNIPFGTVNLLAYNNYQA
Question: Which “hydrolysis of the 33-mer peptide (HPLC-MS), 15 hours, SIF pH 6.8” value does the source give for B5 here?
Answer: at intestinal conditions (pH≈6.8), proteinase K did not hydrolyze most of the 33-mer peptide
